This is an account of results in article PMC3289634.

Several values for one entry are separate records, joined by “and”; a condition that tells them apart may be missing. Identical values can stand only once.

In assay [1] the target is Max-E47 protein chimera (UniProt P61244). Kind of assay: AUC; sedimentation velocity, 20.0°C, 50,000 rpm, Rayleigh interference; loading concentrations 3-130 µM; 20 mM Tris pH 8.0, 0.1 M NaCl, 10 mM 2-mercaptoethanol, 5% (v/v) glycerol.
Assay [2] has the same target. Kind of assay: AUC; sedimentation equilibrium, 16.0°C, 14,000-35,000 rpm, Rayleigh interference; 20 mM Tris pH 8.0, 0.15 M NaCl, 10 mM 2-mercaptoethanol; loading concentrations 5-25; the constant is of dimer to monomers.
Assay [3] shares this target. Kind of assay: SEC; Superdex-75 column, against molecular weight markers. A general note: Size exclusion chromatography separates by hydrodynamic size, large species first.
For assay [4], the target named is Max-E47YF cloning variant (Max-E47-V51Y/V59F) (UniProt P61244). Kind of assay: AUC; sedimentation equilibrium, 16.0°C, 14,000-35,000 rpm, Rayleigh interference; 20 mM Tris pH 8.0, 0.15 M NaCl, 10 mM 2-mercaptoethanol; loading concentrations 5-25; the constant is of dimer to monomers.

Take “Max-E47 protein chimera (from UniProt P61244 22-36; P15923-2 349-400) (designed binder)”: the stoichiometry N was 2 and 4 with Max-E47 protein chimera [1]; 2 and 4 in the assay with Max-E47 protein chimera [2]; 2 in the assay with Max-E47 protein chimera [3].
In assay [4], “Max-E47YF cloning variant (Max-E47-V51Y/V59F) (from UniProt P61244 22-36) (designed binder)” returned a Kd below 1 nM and a stoichiometry N of 2.

In general, stoichiometry N refers to the number of molecules, sites or subunits per partner or assembly. A word on the Kd: it is the concentration at which binding is half-saturated. Read a low Kd as tighter binding.
